Experimental data: PMC8691596
Read-outs that look alike come from different tables or passages of the source. Each block holds one binder with its values, some of them ahead of it.

Key:
[1] = target: human FcγRIIIa (CD16a) V158 allele, histidine-tagged recombinant (human) (UniProt P08637); test: SPR; His-tagged Fc receptor captured by anti-histidine antibody immobilised on CM5; antibody injected at 100 μg/mL for 1 min; response about 5 s before end of injection, blank subtracted; 25°C, HBS-EP+; Biacore T200
[2] = target: human FcγRIIIa (CD16a) F158 allele, histidine-tagged recombinant (human) (UniProt P08637); test: as above
[3] = target: rat FcγRI (CD64), histidine-tagged recombinant (rat); test: as above
[4] = target: anti-CD20 IgG1 L234S/L235T/G236R (human); test: SPR; antibody captured by biotin-labelled anti-human κ light chain on streptavidin CM5; soluble Fcγ receptor injected at one concentration ([…] to 18 μM); HBS-EP+ pH 7.4, 25°C; Biacore 8K
[5] = target: anti-CD20 IgG1 L234S/L235T/G236R (human); test: as above; remark: listed apart in the source
[6] = remark: other sources report otherwise

mean response [1]: 63.2 RU
mean response [2]: 17 RU
B1: anti-CD52 IgG1 L234A/L235A (LALA) (antibody, V domains shown)
VH: QVQLQESGPGLVRPSQTLSLTCTVSGFTFTDFYMNWVRQPPGRGLEWIGFIRDKAKGYTTEYNPSVKGRVTMLVDTSKNQFSLRLSSVTAADTAVYYCAREGHTAAPFDYWGQGSLVTVSS
VL: DIQMTQSPSSLSASVGDRVTITCKASQNIDKYLNWYQQKPGKAPKLLIYNTNNLQTGVPSRFSGSGSGTDFTFTISSLQPEDIATYYCLQHISRPRTFGQGTKLEIK

mean response [3]: 488 RU
B2: anti-CD52 IgG1 N297Q (aglycosyl) (antibody, V domains shown)
VH: QVQLQESGPGLVRPSQTLSLTCTVSGFTFTDFYMNWVRQPPGRGLEWIGFIRDKAKGYTTEYNPSVKGRVTMLVDTSKNQFSLRLSSVTAADTAVYYCAREGHTAAPFDYWGQGSLVTVSS
VL: DIQMTQSPSSLSASVGDRVTITCKASQNIDKYLNWYQQKPGKAPKLLIYNTNNLQTGVPSRFSGSGSGTDFTFTISSLQPEDIATYYCLQHISRPRTFGQGTKLEIK

response [4]: < 1 RU
B3: mouse FcγRIIb extracellular domain, C-terminal hexa-His (receptor)
chain: THDLPKAVVKLEPPWIQVLKEDTVTLTCEGTHNPGNSSTQWFHNGRSIRSQVQASYTFKATVNDSGEYRCQMEQTRLSDPVDLGVISDWLLLQTPQLVFLEGETITLRCHSWRNKLLNRISFFHNEKSVRYHHYSSNFSIPKANHSHSGDYYCKGSLGRTLHQSKPVTITVQGPKSSRSLP

response [4]: < 1 RU
B4: mouse FcγRI extracellular domain, C-terminal hexa-His (independently-made panel) (receptor)
chain: EVVNATKAVITLQPPWVSIFQKENVTLWCEGPHLPGDSSTQWFINGTAVQISTPSYSIPEASFQDSGEYRCQIGSSMPSDPVQLQIHNDWLLLQASRRVLTEGEPLALRCHGWKNKLVYNVVFYRNGKSFQFSSDSEVAILKTNLSHSGIYHCSGTGRHRYTSAGVSITVKELFTTPVLRASVSSPFPEGSLVTLNCETNLLLQRPGLQLHFSFYVGSKILEYRNTSSEYHIARAEREDAGFYWCEVATEDSSVLKRSPELELQVLGPQSSAP

response [4]: < 1 RU
B5: mouse FcγRIII extracellular domain, C-terminal hexa-His (receptor)
chain: ALPKAVVKLDPPWIQVLKEDMVTLMCEGTHNPGNSSTQWFHNGRSIRSQVQASYTFKATVNDSGEYRCQMEQTRLSDPVDLGVISDWLLLQTPQRVFLEGETITLRCHSWRNKLLNRISFFHNEKSVRYHHYKSNFSIPKANHSHSGDYYCKGSLGSTQHQSKPVTITVQDPATTSSISLVWYHT

response [5, 6]: < 1 RU
B6: cynomolgus monkey FcγRIII extracellular domain, C-terminal hexa-His (receptor)
chain: GMRAEDLPKAVVFLEPQWYRVLEKDRVTLKCQGAYSPEDNSTRWFHNESLISSQTSSYFIAAARVNNSGEYRCQTSLSTLSDPVQLEVHIGWLLLQAPRWVFKEEESIHLRCHSWKNTLLHKVTYLQNGKGRKYFHQNSDFYIPKATLKDSGSYFCRGLIGSKNVSSETVNITITQDLAVSSISSFFPPGYQ

response [5, 6]: < 1 RU
B7: human FcγRIIa H131 extracellular domain, C-terminal hexa-His (independently-made panel), P12318 34-217 (receptor)
chain: QAAAPPKAVLKLEPPWINVLQEDSVTLTCQGARSPESDSIQWFHNGNLIPTHTQPSYRFKANNNDSGEYTCQTGQTSLSDPVHLTVLSEWLVLQTPHLEFQEGETIMLRCHSWKDKPLVKVTFFQNGKSQKFSHLDPTFSIPQANHSHSGDYHCTGNIGYTLFSSKPVTITVQVPSMGSSSPMG

response [5]: < 1 RU
B8: human FcγRIIa R131 extracellular domain, C-terminal hexa-His (independently-made panel), P12318 34-217 (receptor)
chain: QAAAPPKAVLKLEPPWINVLQEDSVTLTCQGARSPESDSIQWFHNGNLIPTHTQPSYRFKANNNDSGEYTCQTGQTSLSDPVHLTVLSEWLVLQTPHLEFQEGETIMLRCHSWKDKPLVKVTFFQNGKSQKFSRLDPTFSIPQANHSHSGDYHCTGNIGYTLFSSKPVTITVQVPSMGSSSPMG
modifications: not checked
